Measurements from US20110213019, “Compositions and Methods for Treating Cancer, Inhibiting Proliferation, and Inducing Cell Death” (UNIVERSITY OF LOUISVILLE RESEARCH FOUNDATION, INC., published 2011).

What was measured:
[1] = target: MBP-1 (alternative translation product of alpha-enolase) (UniProt P06733-2 P06733-2:1-341); experiment: EMSA; strong binding; supershifted by alpha-enolase polyclonal antibody; conditions: parallel G4
Text: (§1) EMSAs were used to characterize the binding of α-enolase and MBP-1 to the c-myc quadruplex-forming sequence. […] The quadruplex oligonucleotide aptamer, GRO29A, competed for α-enolase and MBP-1 binding to PU27. […] A mutation in the PU27 sequence, which prevents quadruplex formation, abrogated binding of both α-enolase and MBP-1. MBP-1 also binds to a downstream site in the P2 promoter.

alpha-enolase = alpha-enolase (UniProt P06733 P06733:2-434); experiment: as above; conditions: parallel G4
alpha-enolase, sequence (P06733 2-434, one chain of several): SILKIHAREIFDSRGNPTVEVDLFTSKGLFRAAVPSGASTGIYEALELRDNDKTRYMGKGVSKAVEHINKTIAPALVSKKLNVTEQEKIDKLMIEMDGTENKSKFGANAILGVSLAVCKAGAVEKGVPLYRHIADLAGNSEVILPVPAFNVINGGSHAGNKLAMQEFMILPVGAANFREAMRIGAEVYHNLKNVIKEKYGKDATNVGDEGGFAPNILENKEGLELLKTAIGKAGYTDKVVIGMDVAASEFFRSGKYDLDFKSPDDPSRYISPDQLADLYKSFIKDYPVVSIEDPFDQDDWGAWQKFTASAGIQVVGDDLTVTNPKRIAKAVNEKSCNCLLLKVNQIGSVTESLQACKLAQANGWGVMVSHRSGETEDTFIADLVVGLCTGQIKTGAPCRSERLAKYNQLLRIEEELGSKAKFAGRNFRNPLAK
Text: as §1

MBP-1 (alternative translation product of alpha-enolase), sequence (P06733 94-434, one chain of several): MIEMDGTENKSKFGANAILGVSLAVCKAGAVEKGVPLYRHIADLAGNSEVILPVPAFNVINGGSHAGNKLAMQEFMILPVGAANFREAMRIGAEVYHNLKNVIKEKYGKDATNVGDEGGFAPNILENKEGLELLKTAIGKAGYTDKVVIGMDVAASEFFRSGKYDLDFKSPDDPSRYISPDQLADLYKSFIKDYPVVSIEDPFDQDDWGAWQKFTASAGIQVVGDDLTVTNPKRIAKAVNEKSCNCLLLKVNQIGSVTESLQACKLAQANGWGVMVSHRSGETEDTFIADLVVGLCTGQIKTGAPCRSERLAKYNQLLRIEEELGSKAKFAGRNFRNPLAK

TGGGGAGGGTGGGGAGGGTGGGGAAGG (structured_DNA) [PU27 (c-Myc promoter quadruplex)]: binds [1]; binds (alpha-enolase).
